Consider two molecules from patent publication US20240199757A1 (UNIVERSITY OF CHICAGO, published 2024).

Test [1] deals with T1, Full-length human NT5E (recombinant, in-house) (human, UniProt P21589 27-549).
T1 construct: also called hNT5E; hNT5EWT
T1 sequence: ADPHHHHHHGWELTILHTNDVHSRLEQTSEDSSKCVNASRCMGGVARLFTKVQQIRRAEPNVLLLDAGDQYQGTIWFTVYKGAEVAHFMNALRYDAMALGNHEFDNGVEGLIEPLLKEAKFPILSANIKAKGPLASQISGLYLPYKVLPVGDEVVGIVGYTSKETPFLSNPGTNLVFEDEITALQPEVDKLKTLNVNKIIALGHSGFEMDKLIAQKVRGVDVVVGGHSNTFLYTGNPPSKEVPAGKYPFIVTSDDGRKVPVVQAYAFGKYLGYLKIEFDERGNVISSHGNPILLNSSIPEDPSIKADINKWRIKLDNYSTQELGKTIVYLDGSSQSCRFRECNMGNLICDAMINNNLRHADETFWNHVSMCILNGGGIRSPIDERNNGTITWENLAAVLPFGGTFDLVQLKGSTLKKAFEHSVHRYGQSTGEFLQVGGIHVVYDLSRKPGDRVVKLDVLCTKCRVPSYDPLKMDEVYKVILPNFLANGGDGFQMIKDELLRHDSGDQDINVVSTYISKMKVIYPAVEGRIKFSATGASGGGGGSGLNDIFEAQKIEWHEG
Description: ELISA, biotinylated NT5E on neutravidin plate, 1 mM ATP. The protocol:
(B) Protein ELISA: Protein-based multipoint ELISA was performed to estimate the affinity of the generated Fabs and IgGs to NT5E. The binding of the Fabs and IgGs to the closed form of NT5E were determined in ELISA buffer (HBST) supplemented with 10 μM zinc chloride and 1 mM ATP while the binding of the same to open form of NT5E were determined in ELISA buffer (HBST) without any cofactors. A fixed concentration of the immobilized target (50 nM) on ELISA plate was incubated with 3-fold serial dilutions of the purified Fabs and IgGs starting from 3 μM and 1 μM respectively for 15 min. The plates were washed and were subsequently incubated with a secondary HRP-conjugated anti-protein L monoclonal antibody (#32420, ThermoFisher, 1:6000 dilution). As with phage ELISA, the plates were again washed, developed with TMB substrate and quenched with 1.0 M HCl, and absorbance (Abs450) was determined. To determine the affinity (EC50), the data were fitted with a non-linear, 4-parameter logistic curve in OriginLab.

In test [2] the target is T2, human NT5E expressed on MDA-MB-231 cells (human, UniProt P21589 27-549).
T2 construct: whole, on cells; also called NT5E-expressing MDA-MB-231 cells; CD73
T2 sequence (looked up): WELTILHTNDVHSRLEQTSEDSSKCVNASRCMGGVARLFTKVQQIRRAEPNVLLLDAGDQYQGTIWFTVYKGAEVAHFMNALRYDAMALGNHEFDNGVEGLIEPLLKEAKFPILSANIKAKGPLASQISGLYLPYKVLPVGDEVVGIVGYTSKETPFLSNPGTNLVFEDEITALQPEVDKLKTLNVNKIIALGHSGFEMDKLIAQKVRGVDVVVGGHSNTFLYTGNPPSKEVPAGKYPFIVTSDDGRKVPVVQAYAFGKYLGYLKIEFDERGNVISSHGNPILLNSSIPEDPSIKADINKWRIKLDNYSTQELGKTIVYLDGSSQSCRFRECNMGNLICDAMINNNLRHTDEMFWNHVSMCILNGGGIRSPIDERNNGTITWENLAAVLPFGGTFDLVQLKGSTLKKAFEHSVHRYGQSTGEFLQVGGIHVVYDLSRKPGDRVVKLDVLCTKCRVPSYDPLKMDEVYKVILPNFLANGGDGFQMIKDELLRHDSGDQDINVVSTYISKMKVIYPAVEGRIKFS
The test is described as follows: flow cytometry on MDA-MB-231 cells, 1 mM ATP. Here is the method:
Flow cytometry analysis of antibodies binding to human NT5E expressed on MDA-MB-231 cells in ATP-free condition (black) or in 1 mM ATP (red). Top panel: (left) 1780 Fab and (right) 1780 IgG titrations. […] Binding was measured at the indicated range of antibody concentrations and is expressed as mean±st. dev of median fluorescence intensity (MFI) of 1-2 replicates. Data were analyzed using OriginLab, and EC₅₀ values are shown next to the fitted curves.
Human MDA-MB-231 cells and murine 4T1 cells were grown to 90% confluency, detached with 5 mM EDTA for 15 min at 37° C. and then resuspended in 37° C. lx PBS (#10010031, Gibco) supplemented with 1% FBS and 1OpM ZnCl2. Separate working buffers (WB) of PBS and 1% FBS with or without fixed nucleotide concentrations were used throughout all washing steps to maintain constant condition. In 96-well plates (#3799, Costar), 0.2×10⁶ cells were added per well. The plates were spun at 500×g for 5 min and the supernatant was removed. Anti-NT5E antibodies were diluted to the desired concentration in 100 μL WB, added to the cells and the plates were incubated for 20 min at 37° C. Plates were spun and cells were washed twice with WB then spun a second time. Cells were stained with 100 μL of secondary antibody (Alexa Fluor 647 AffiniPure Goat Anti-Human IgG, F(ab′)2 fragment specific, #109-605-006, Jackson, 1:200) dilution and plates were incubated for 20 min at 37° C. Cells were washed twice with WB then fixed on ice with WB supplemented with 0.5% PFA. Fixing solution was removed by centrifugation and cells were resuspended in cold 1× PBS. Samples were analyzed by flow cytometry using CytoFLEX (Beckman Coulter) and mean fluorescence intensity (MFI) data was extracted using FlowJo software. Resulting binding data was plotted using OriginLab.

The target of test [3] is T2, human NT5E expressed on MDA-MB-231 cells. Description: cell-based or functional assay.

B1: 1789 Fab (Fab, V domains shown)
VH: EVQLVESGGGLVQPGGSLRLSCAASGFNVSYSSIHWVRQAPGKGLEWVASISSSSGYTYYADSVKGRFTISADTSKNTAYLQMNSLRAEDTAVYYCARNYWGWYPFYYFAFDYWGQGTLVTV
VL: DIQMTQSPSSLSASVGDRVTITCRASQSVSSAVAWYQQKPGKAPKLLIYSASSLYSGVPSRFSGSRSGTDFTLTISSLQPEDFATYYCQQGWDYPITFGQGTKVEIKR
With B1, the results for the EC50 in test [1] and in test [2] were 37 nM and 53 nM, respectively. Also, the “IC50 of NT5E phosphate production on MDA-MB-231 cells, +500 µM ATP” value in test [3] was 122 nM.

B2: 1789 IgG (antibody, V domains shown)
VH: EVQLVESGGGLVQPGGSLRLSCAASGFNVSYSSIHWVRQAPGKGLEWVASISSSSGYTYYADSVKGRFTISADTSKNTAYLQMNSLRAEDTAVYYCARNYWGWYPFYYFAFDYWGQGTLVTVSS
VL: DIQMTQSPSSLSASVGDRVTITCRASQSVSSAVAWYQQKPGKAPKLLIYSASSLYSGVPSRFSGSRSGTDFTLTISSLQPEDFATYYCQQGWDYPITFGQGTKVEIKR
Regarding B2, the EC50 in test [1] amounted to 0.86 nM; in test [2], 9.4 nM. Besides, the “IC50 of NT5E phosphate production on MDA-MB-231 cells, +500 µM ATP” value in test [3] was 2.2 nM.
